Assay results reported in patent US6613506B1, “Compositions and methods for inhibiting human immunodeficiency virus infection by down-regulating human cellular genes” (Subsidiary No. 3, Inc., priority 2000, dated 2003).

B1: CF-280: GSE, SEQ ID NO:20; portion of an unknown human cellular gene (nucleic acid, listed as Homo sapiens)
DNA: GTGCCGTATGAATATACAAAATAATGGCATCAGGGATCCCTGTGCTCATTCACATAGCTAGGGACAACAGGATTTCATCTCCAGGAAACTCAGTAGTATACTTTTGTGACTTCTCTCTTTAAGCACCAAAGCATACTTTCAGGGAAAAACAAAAAAGAGATTAAAAATGTAAAGAATTCTTTCATGCTGCTTGGAGAGGTGAGGGAAGGTAGCCCACTGAAAGTGACAGAGAA
B2: CF-204: GSE, SEQ ID NO:9, antisense; human calnexin gene (nucleic acid, listed as Homo sapiens)
antisense: GGTTGTCAATCACAGGTCGCCAGGAGACACCACATCCAGGAGCTGACTCACATCTAGGGTTGGCAATCTGAGGAGCCTCCCATTCTCCATCCATGTCTTCATCCCAA
B3: CF-313: GSE, SEQ ID NO:13, sense; human protein tyrosine phosphatase gene (nucleic acid, listed as Homo sapiens)
sense: CATTTTGTTACATAAGGATGACTTTTTTATACAATGGAATAAATTATGGCATTTCTATTGAAATTTCAACGCTTTTGTTTCTTTGGCAACCACAC
B4: CF-302: GSE, SEQ ID NO:16, antisense; human CD44 gene (nucleic acid, listed as Homo sapiens)
antisense: GATCCCTGGGCGCGGGGCAGGGGCCGGCGGAGGACGGGACGAGGATGGCGGACCGAACCTGGCAGAGGCTGGG
B5: CF-531: GSE, SEQ ID NO:47, antisense; cell adhesion molecule L1 gene (nucleic acid, listed as Homo sapiens)
antisense: CTGGGTCCCCAAGGAGGGCCAGTGCAACTTCAGGTTCCATATCTTGTTCAAAGCCTTGGGAGAAGAGAAGGGTGGGGCTTCCCTTTCGC
modifications: chemistry not fully specified
notes: cell adhesion molecule L1 gene
B6: CF-545: GSE, SEQ ID NO:49, antisense; U-snRNP associated cyclophilin gene (nucleic acid, listed as Homo sapiens)
antisense: CTTCTTGGTGGTGTTCTTGAGTAAGATAATCTGGACTGGCCCCCGTCTTTGCTTCCCTGCCTGCTGCTGCCCCATTTGATCAAGAGACCATGGAAGTGTCAGAGATTCAGAATCCAAGATTGTCTTTAAGTTTTCAACTGTAAATAAAGTTTTTTTGTATGCGTAAAAAAAGCTCGTGCCT
B7: CF-286: GSE, SEQ ID NO:18, sense; human elongation factor-1α gene (nucleic acid, listed as Homo sapiens)
sense: CAGTTGGGGTGGGTGTCATCAAAGCAGTGGACAAGAAGGCTGCTGGAGCTGGCAAGGTCACCAAGTCTGCCCAGAAAGCTCAGAAGGCTAAATGAATATTATCCCTAATACCTGCCACCCCACTCTTAATCAGTGGTGGAAGAAC
B8: CF-004: GSE, SEQ ID NO:7, sense; human 2-oxoglutarate dehydrogenase gene (nucleic acid, listed as Homo sapiens)
sense: GCGCAAAGCACGCGACATGGTGGGGCAGGTGGCCATCACAAGGATTGAGCAGCTGTCGCCATTCCCCTTTGACCTCCTGCTGAAGGAGGTGCAGAAGTACCCCAA
B9: CF-273: GSE, SEQ ID NO:11, sense; eukaryotic translation initiation factor 3 gene (nucleic acid, listed as Homo sapiens)
sense: GCTCGTCAGTGTCCACCCCTCCTCGCAACTCCAGGCGCTCCTTTTTCTGCTCCATATAGAGCTCCTGGGCCATTTTCCGGTACTTCCGGAAATCTTCCATCATGGTGCGCCTTC
B10: CF-311: GSE, SEQ ID NO:12, antisense; human protein tyrosine phosphatase gene (nucleic acid, listed as Homo sapiens)
antisense: GGGGGCTCTGTTTGGTGGTCTCTCTAGCTGCACTGGTCTATCAAGCTGTTGGCTGGTCTCTCTCTCTGGCTGGGGATC
B11: CF-210: GSE, SEQ ID NO:14, sense; herpesvirus-associated ubiquitin-specific protease gene (nucleic acid, listed as Homo sapiens)
sense: GCATTACAAAGAGTGTTCTATGAATTACAGCATAGTGATAAACCTGTAGGAACAAAAAAGTTAACAAAGTCATTTGGGTGGGAAACTTTAGATAGCTTCATGCAACATGATGTT
B12: CF-529: GSE, SEQ ID NO:45, antisense; importin beta subunit gene (nucleic acid, listed as Homo sapiens)
antisense: GGAGTGTGCACGGATGCTGAATGTTTGGGAATGAGAGGATGAGTGAGTGAGGCTTGAAAACACACCACATTGAAAATCCTGCCACAGCAGCAGCCGCAGCCGCCAACAGCAGCGCTGTTAGTGAGCTAAGTAAGC
B13: CF-266: GSE, SEQ ID NO:15, antisense; human eIF4B gene (nucleic acid, listed as Homo sapiens)
antisense: GCCGTTCTTCTACTTCTCTTTCTCAAGCAGCAGTGTCAACAGGCTTTGCCCCTCCAAAGATAGAAGCAGCTCGAGTGGACTGGGAGGTACTAGCAGA
B14: CF-317: GSE, SEQ ID NO:17, antisense; human phosphatidylinositol 3-kinase gene (nucleic acid, listed as Homo sapiens)
antisense: CCAAGCTTCCTATCTTAAGCTGGGCGTTGATATCCAGGTCACAACTATAGATGTAGTGAAACTTCTCTGCTTCCCCCATCGCACCGTCTGCAAAGGTACCACC

System: HIV-1IIIB
Experiment: Selection of GSEs from HeLa cell library using productive infection of CEM-ss cells
Type: cell-based
Protocol: Additionally, a normalized RFE library made from HeLa cells was transferred into CEM-ss cells and the neo resistant population was infected with TCID50 of 3000/10^6 cells of HIV-1IIIB. This RFE library was represented by 50×10^6 independent recombinant clones. Four and seven days after infection, a purified anti-CD4 monoclonal antibody, L77 (available from Becton Dickinson), was added at 5 Φg/mL to prevent syncytia formation. Syncytia formation is thought to be prevented by blocking the interaction between gp120 expressed on the surface of an infected cell and CD4 on the surface of an uninfected cell. […] At 10-12 days after infection, CD4^+, p24^− cell population representing uninfected cells were sorted. Genomic DNA from the CD4^+, p24^− cells was purified and used for PCR amplification of inserts with the vector-derived primers. The amplified mixture was digested with EcoRI and BamHI and cloned back into the retroviral vector. The selection was repeated for additional rounds.
The selection of GSEs from HeLa cell library using productive infection of CEM-ss cells isolated […] additional nucleic acid molecules which have substantial sequence identity with other cellular genes.
The selection of GSEs from a HeLa cell library using productive infection of CEM-ss cells isolated 21 additional nucleic acid molecules which have substantial sequence identity with other cellular genes. […] The complement of SEQ ID NO:25 is represented by SEQ ID NO:26. […] The complement of SEQ ID NO:27 is represented by SEQ ID NO:28. […] The complement of SEQ ID NO:29 is represented by SEQ ID NO:30. […] The complement of SEQ ID NO:31 is represented by SEQ ID NO:32. […] The complement of SEQ ID NO:33 is represented by SEQ ID NO:34. […] The complement of SEQ ID NO:35 is represented by SEQ ID NO:36. […] The complement of SEQ ID NO:37 is represented by SEQ ID NO:38. […] The complement of SEQ ID NO:39 is represented by SEQ ID NO:40. […] The complement of SEQ ID NO:41 is represented by SEQ ID NO:42. […] The complement of SEQ ID NO:43 is represented by SEQ ID NO:44. […] The complement of SEQ ID NO:45 is represented by SEQ ID NO:46. […] The complement of SEQ ID NO:47 is represented by SEQ ID NO:48. […] The complement of SEQ ID NO:49 is represented by SEQ ID NO:50. […] The complement of SEQ ID NO:51 is represented by SEQ ID NO:52. […] The complement of SEQ ID NO:53 is represented by SEQ ID NO:54. […] The complement of SEQ ID NO:55 is represented by SEQ ID NO:56. […] The complement of SEQ ID NO:57 is represented by SEQ ID NO:58. […] The complement of SEQ ID NO:59 is represented by SEQ ID NO:60. […] The complement of SEQ ID NO:61 is represented by SEQ ID NO:62. […] The complement of SEQ ID NO:77 is represented by SEQ ID NO:78. […] The complement of SEQ ID NO:87 is represented by SEQ ID NO:88. […] The complement of SEQ ID NO:99 is represented by SEQ ID NO:100. […] The complement of SEQ ID NO:101 is represented by SEQ ID NO:102. […] The complement of SEQ ID NO:103 is represented by SEQ ID NO:104. […] The complement of SEQ ID NO:105 is represented by SEQ ID NO: 106. […] The complement of SEQ ID NO:107 is represented by SEQ ID NO:108. […] The complement of SEQ ID NO:109 is represented by SEQ ID NO:110. […] The complement of SEQ ID NO:111 is represented by SEQ ID NO:112. […] The complement of SEQ ID NO:113 is represented by SEQ ID NO:114. […] The complement of SEQ ID NO:115 is represented by SEQ ID NO:116. […] The complement of SEQ ID NO:117 is represented by SEQ ID NO:118.

Molecule	HIV-suppressive activity of the GSE and active orientation
CF-321: GSE, SEQ ID NO:29, sense; rat guanine nucleotide releasing protein gene (sense AGTTCCTTTTACTTTTTAATCTTTCCTTAAAGCACGCCTGTGTTGGGCTAACGA; listed as Homo sapiens)	interferes with HIV replication in the sense orientation
CF-332: GSE, SEQ ID NO:33, antisense; lymphocyte-specific protein 1 gene (antisense AACACCCATAGTAGGCCTAAAAGCAGCCACCAATTAAGAAAGC; listed as Homo sapiens)	interferes with HIV replication as an antisense molecule
CF-528: GSE, SEQ ID NO:43, sense; GTP binding protein gene (sense AGTGCTTTAACGATGTCACAGCTATCATTTACGTCGCAGCCTGCAGTAGCTACAACATG; chemistry not fully specified; listed as Homo sapiens)	interferes with HIV infection in the sense orientation
CF-537: GSE, SEQ ID NO:25, sense; human bone morphogenic protein-1 gene (sense GGTCCACCATGGCCCTGCTGCACTCCGGCCGCGTCCTCCCCGGGATCGCCGCCGCCT; chemistry not fully specified; listed as Homo sapiens)	interferes with the HIV life cycles in the sense orientation
B1	selected in CEM-ss cells
B2	suppresses HIV infection as an antisense molecule
B3	suppresses HIV infection as a sense molecule
B4	suppresses HIV infection as an antisense molecule
B5	interferes with HIV replication as an antisense molecule
B6	interferes with HIV replication as an antisense molecule
B7	suppresses HIV infection as a sense molecule
B8	suppresses HIV infection as a sense molecule
B9	suppresses HIV infection as a sense molecule
B10	suppresses HIV infection as an antisense molecule
B11	suppresses HIV infection as a sense molecule
B12	interferes with HIV replication as an antisense molecule
B13	suppresses HIV infection as an antisense molecule
B14	suppresses HIV infection as an antisense molecule
